Experimental data from doi:10.1101/2022.03.30.486377 (bioRxiv, 2022).

Assays:
Assay in all cases: ELISA
[1] = target: SARS-CoV-2 S PentaPro (F817), prefusion S trimer (SARS-CoV-2, Wuhan-Hu-1 sequence, UniProt P0DTC2, stabilised)
[2] = target: SARS-CoV-2 S2 in postfusion conformation (SARS-CoV-2 (D614G ectodomain; D614G …, UniProt P0DTC2, strain)
[3] = target: SARS-CoV-2 S2 PentaPro in prefusion conformation (SARS-CoV-2, Wuhan-Hu-1 sequence, UniProt P0DTC2, stabilised)

Measured: binding result

B1: VP12E7 mAb (antibody, V domains shown)
VH: QVQLVQSGGGVVQPGESLRLSCSGSGFTFNNYIMHWVRQAPGQGLDYVSGIGSDGRNTNYGDSVKGRFTISRDNSKDTLYLQMTSLRAEDTAFYYCVKGLDVLRFLDLSTPSGERLDAFDIWGQGTMVTVSS
VL: DIVMTQSPSFLSASVGDRVTITCRASQGISNYLAWYQQKPGKAPHLLIYAASTLQSGVPSRFSGSGSGTEFTLTISSLQPEDFATYYCQQLNSYPLFTFGPGTKVDIE
binds: all assays above

B2: C77G12 mAb (antibody, V domains shown)
VH: EVQLVESGGGVVQPGRSLRISCAVSGFTFGSYAMHWVRQAPGKGLEWVGVMSSDGHNEYYADSVKGRFTISRDNSRNKLYLEMNNLRVDDTAVFYCARGSDYVDDSPPLHYWGQGTLVTVSS
VL: DIQLTQSPSSLSASIGDRVTITCRASQDIANKLAWFQQAPGKAPKSLIYAASRLQSGVPSQFSGSGSGTDFTLTIESLQAGDFATYFCQQYDSFPFTFGPGTKVDVK
binds: all assays above

B3: C13C9 mAb (antibody, V domains shown)
VH: EVQLVQSGPEVKKPGTSARVSCKASGFTSKNTALQWVRQARGQPLEWMGWIDISNYITNYAQKFRGRLTITWDLSASMAYMELSSLRSEDTAVYYCAAVGKDDDVLTGGNKYFDHWGQGTLVTVSS
VL: SYELTQPPSVSVSPGQTARITCSGDALPKKYAYWYQQKSGQAPVLVIHEDDKRPSGIPGRFSASSSGTTATLTISGAQVEDEADYYCYSTDTNDNHAFGSGTKLTVL
binds: all assays above

B4: VN01H1 mAb (antibody, V domains shown)
VH: EVQLVESGGGLVLPGGSLRLSCSASGFTFSDFSMHWVRQSPGKGLEYVSAITSSGSSTYYPDSVKGRFTISRDNSKNTLYLQMGSLRVEDTAVYWCVKNSDVFRFPHLYFDVWGRGTLVTVSS
VL: not shown
binds: all assays above

B5: C13B8 mAb (antibody, V domains shown)
VH: QVQLQESGPGLVQPSQTLTLTCTVSGDSISNEDYHWTWIRQHPGKGLEWMGYLQYSGNTNYNPSLKSRMTISVDTSKNQFSLRLNSVTAADTAVYFCATSIVLTGMSNKIQPFDYWGQGTLVTVSS
VL: SYELTQPPSVSVSPGQMARITCSGEALPKKYAYWYQQKGGQFPVLVIYKDTERPSGIPERFSGSSSGTIVTLTISGVQPEDEADYYCLSADTSGTWVFGGGTKLTVL
binds: all assays above
